Results: article PMC8376927

How the values were obtained:
[1] = biological target: DAPK2_RNTD, full-length human DAPK2 mutant with the C terminus S367STS370 changed to R367NTD370, autophosphorylated (human) (UniProt Q9UIK4); assay: AUC; sedimentation velocity, DAPK2_RNTD alone at 25-350 μM; 20 °C, 42,000 rev./min; 50 mM HEPES-NaOH pH 7.5, 150 mM NaCl, 1 mM TCEP; dimer to monomers, KD from the ratios of the peak areas
[2] = biological target: FAM-ctDAPK2-pT369 peptide (FAM-RRRSSpTS) (human); assay: fluorescence polarisation; 14-3-3γ (160 µM and binary dilution series) incubated 1 h with 50 nM FAM-labelled peptide; 20 mM HEPES-NaOH pH 7.4, 150 mM NaCl, 0.1% Tween 20, 0.1% BSA; one-site-binding model; apparent KD
[3] = biological target: FAM-ctDAPK2-pT369 peptide (FAM-RRRSSpTS) (human); assay: fluorescence polarisation; as a1 but with 100 µM Fusicoccin A (FC-A); apparent KD

| Substance | Kd [1] | stoichiometry N [1] | Kd [2] | Kd [3] |
| --- | --- | --- | --- | --- |
| DAPK2_RNTD, full-length human DAPK2 mutant with the C terminus S367STS370 changed to R367NTD370, autophosphorylated (from UniProt Q9UIK4 1-370) (enzyme) | 100 µM | 2 | – | – |
| Human 14-3-3γ WT (from UniProt P61981 1-247) (natural protein) | – | – | 114 nM | 4.4 nM |
